Laboratory results from patent publication US12331106B2, “Anti-angiopoietin-2 antibodies that induce Tie2 activation” (Institute for Basic Science, priority 2018, dated 2025).
Read-outs that look alike come from different tables or passages of the source.

Target: T1, hAng2-RBD (Homo sapiens, UniProt O15123)
T1 construct: made in house; host or cells: HEK293F
T1 sequence (O15123 276-496): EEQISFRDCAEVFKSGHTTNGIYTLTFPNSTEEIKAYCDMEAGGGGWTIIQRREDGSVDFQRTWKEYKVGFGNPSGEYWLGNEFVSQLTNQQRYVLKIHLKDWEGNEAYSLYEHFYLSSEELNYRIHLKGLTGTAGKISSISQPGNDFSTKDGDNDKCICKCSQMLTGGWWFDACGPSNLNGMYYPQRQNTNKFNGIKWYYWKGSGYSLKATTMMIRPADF
Assay type: binding
Details: for Relative Uptake (Da) Δ: 2C8
Procedure: The antigenic determinants (epitopes) of hAng2 recognized by mouse monoclonal antibodies, 2C8 and 4B9, were analyzed by HDX-MS (Hydrogen/deuterium exchange-mass spectrometry) technique. HDX-MS analysis methods are described in the following articles; Houde D, Engen J R (2013) Methods Mol. Biol. 988: 269-89 and Houde et al. (2011) J. Pharm. Sci. 100 (6), 2071.
Recombinant hAng2-RBD protein was used to analyze the epitopes of antibodies 2C8 and 4B9. […] The prepared hAng2-RBD/antibody complexes were diluted 15 times with deuterium labeling buffer, labeled at various time, and then quenched with the same volume of quenching buffer. The labeling reaction time was 0 min (undeuterium), 0.33 min, 10 min, 60 min and 240 min. However, in undeuterium condition, the deuterium labeling buffer was replaced with equilibrium buffer and the reaction was immediately stopped with quenching buffer. For mass spectrometry, the deuterium labeled hAng2-RBD/antibody samples were loaded on a pepsin column and peptide digestion was proceeded.
The deuterium uptake difference between hAng2-RBD alone and the hAng2-RBD-antibody complex conditions was comparatively analyzed, and a region showing a distinct decrease in the deuterium uptake is either a peptide to which the antibody binds directly, or a structurally changed region. When the deuterium uptake difference between hAng2-RBD alone and the hAng2-RBD-antibody complex was 0.5-1 Da or more, it was considered significant.
In the case of antibody 4B9, it cannot be ruled out that an undetermined region (residues 25 to 40 of SEQ ID NO: 2) can be included in the scope of the epitope. The epitope analysis results for each antibody are shown in different colors on the 3D structure of hAng2-RBD, which was generated using PyMol software (FIG. 2).

B1: 2C8: mouse monoclonal anti-Ang2 antibody; VH SEQ ID NO: 19, VL SEQ ID NO: 21; hybridoma KCLRF-BP-00417 (antibody, V domains shown)
VH: QVQLQQSGPQLVRPGASVKISCKASGYSFTSYWMHWVKQRPGQGLEWIGMIDPSDSETRLNQKFKDKASLTVDKSSSTAYMQLSSPTSGDSAVYYCARRFYYGSDWYFDVWGAGSTVTVSS
VL: DIVMTQSHKFMSTSVGDRVSITCKASQDVGTAVAWYQQKPGQSPKLLIYWASTRHTGVPDRFTGSGSGTDFTLTISNVQSEDLADYFCQQYSSYPLTFGSGTKLEIK
modifications: Heavy Chain Variable Region; Light Chain Variable Region
notes: mouse monoclonal anti-Ang2 antibody; hybridoma KCLRF-BP-00417
- Relative Uptake (Da) Δ (residues 52-60 (SEQ ID NO: 2), exposure time 0.00 min): 0.15 Da
- Relative Uptake (Da) Δ (residues 52-60 (SEQ ID NO: 2), exposure time 0.33 min): 0.21 Da
- Relative Uptake (Da) Δ (residues 52-60 (SEQ ID NO: 2), exposure time 10.00 min): 0.41 Da
- Relative Uptake (Da) Δ (residues 52-60 (SEQ ID NO: 2), exposure time 60.00 min): 0.14 Da
- Relative Uptake (Da) Δ (residues 52-60 (SEQ ID NO: 2), exposure time 240.00 min): 0.08 Da
- Relative Uptake (Da) Δ (residues 61-77 (SEQ ID NO: 2), exposure time 0.00 min): 0.08 Da
- Relative Uptake (Da) Δ (residues 61-77 (SEQ ID NO: 2), exposure time 0.33 min): 1.18 Da
- Relative Uptake (Da) Δ (residues 61-77 (SEQ ID NO: 2), exposure time 10.00 min): 1.78 Da
- Relative Uptake (Da) Δ (residues 61-77 (SEQ ID NO: 2), exposure time 60.00 min): 1.36 Da
- Relative Uptake (Da) Δ (residues 61-77 (SEQ ID NO: 2), exposure time 240.00 min): 1.31 Da
- Relative Uptake (Da) Δ (residues 61-78 (SEQ ID NO: 2), exposure time 0.00 min): 0.06 Da
- Relative Uptake (Da) Δ (residues 61-78 (SEQ ID NO: 2), exposure time 0.33 min): 1.15 Da
- Relative Uptake (Da) Δ (residues 61-78 (SEQ ID NO: 2), exposure time 10.00 min): 1.80 Da
- Relative Uptake (Da) Δ (residues 61-78 (SEQ ID NO: 2), exposure time 60.00 min): 1.33 Da
- Relative Uptake (Da) Δ (residues 61-78 (SEQ ID NO: 2), exposure time 240.00 min): 1.34 Da
- Relative Uptake (Da) Δ (residues 67-77 (SEQ ID NO: 2), exposure time 0.00 min): −0.12 Da
- Relative Uptake (Da) Δ (residues 67-77 (SEQ ID NO: 2), exposure time 0.33 min): 0.89 Da
- Relative Uptake (Da) Δ (residues 67-77 (SEQ ID NO: 2), exposure time 10.00 min): 1.58 Da
- Relative Uptake (Da) Δ (residues 67-77 (SEQ ID NO: 2), exposure time 60.00 min): 1.21 Da
- Relative Uptake (Da) Δ (residues 67-77 (SEQ ID NO: 2), exposure time 240.00 min): 1.07 Da
- Relative Uptake (Da) Δ (residues 67-78 (SEQ ID NO: 2), exposure time 0.00 min): 0.30 Da
- Relative Uptake (Da) Δ (residues 67-78 (SEQ ID NO: 2), exposure time 0.33 min): 0.95 Da
- Relative Uptake (Da) Δ (residues 67-78 (SEQ ID NO: 2), exposure time 10.00 min): 1.66 Da
- Relative Uptake (Da) Δ (residues 67-78 (SEQ ID NO: 2), exposure time 60.00 min): 1.33 Da
- Relative Uptake (Da) Δ (residues 67-78 (SEQ ID NO: 2), exposure time 240.00 min): 1.04 Da
- Relative Uptake (Da) Δ (residues 78-84 (SEQ ID NO: 2), exposure time 0.00 min): 0.00 Da
- Relative Uptake (Da) Δ (residues 78-84 (SEQ ID NO: 2), exposure time 0.33 min): −0.01 Da
- Relative Uptake (Da) Δ (residues 78-84 (SEQ ID NO: 2), exposure time 10.00 min): 0.01 Da
- Relative Uptake (Da) Δ (residues 78-84 (SEQ ID NO: 2), exposure time 60.00 min): 0.11 Da
- Relative Uptake (Da) Δ (residues 78-84 (SEQ ID NO: 2), exposure time 240.00 min): 0.36 Da
- epitope of hAng2-RBD to which the antibody binds (deuterium uptake difference 0.5-1 Da or more considered significant): residues 61 to 78 of SEQ ID NO: 2
